What all share (conditions): both partners purified
For assay [1], the target named is microtubules (UniProt P02550 1-451, alpha/beta-tubulin heterodimer polymerised into paclitaxel-stabilised microtubules, GTP in the buffer. Source and isotypes not given); porcine brain tubulin (a natural isotype mixture with native mod). The experiment in a line: co-sedimentation; YFP fluorescence of pellet and supernatant; 100 mM PIPES pH 6.8, 2 mM MgCl2, 1 mM EGTA, 20 µM paclitaxel, 1 mM GTP; 20,000 g, 30 min, 30 °C; hyperbolic fit.

Assay [2] addresses T1, F-actin (UniProt P68135 1-377). The experiment in a line: co-sedimentation; YFP fluorescence of pellet and supernatant; increasing F-actin concentrations; 5 mM Tris pH 7.4, 100 mM KCl, 0.04% NaN3, 2 mM MgCl2; 20,000 g, 30 min, 4 °C.
Assay [3] deals with T1, F-actin. Described as above. The source holds these as a separate data set.

The term Kd denotes the equilibrium constant for the complex coming apart.

Chain of microtubules (P02550 whole entry, chain 1 of 2): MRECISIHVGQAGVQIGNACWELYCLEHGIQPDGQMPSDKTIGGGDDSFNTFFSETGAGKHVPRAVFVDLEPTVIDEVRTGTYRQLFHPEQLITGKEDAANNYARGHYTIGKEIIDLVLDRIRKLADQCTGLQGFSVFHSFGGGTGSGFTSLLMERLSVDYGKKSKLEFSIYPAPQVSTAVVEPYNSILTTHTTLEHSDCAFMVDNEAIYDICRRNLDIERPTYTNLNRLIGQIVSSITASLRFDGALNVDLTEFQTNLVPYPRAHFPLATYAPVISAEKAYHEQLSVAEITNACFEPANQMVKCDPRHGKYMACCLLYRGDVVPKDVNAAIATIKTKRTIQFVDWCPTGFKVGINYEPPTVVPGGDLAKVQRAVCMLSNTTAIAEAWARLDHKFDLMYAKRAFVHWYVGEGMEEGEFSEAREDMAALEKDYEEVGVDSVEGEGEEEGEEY
Chain of microtubules (P02554 whole entry, chain 2 of 2, further chain): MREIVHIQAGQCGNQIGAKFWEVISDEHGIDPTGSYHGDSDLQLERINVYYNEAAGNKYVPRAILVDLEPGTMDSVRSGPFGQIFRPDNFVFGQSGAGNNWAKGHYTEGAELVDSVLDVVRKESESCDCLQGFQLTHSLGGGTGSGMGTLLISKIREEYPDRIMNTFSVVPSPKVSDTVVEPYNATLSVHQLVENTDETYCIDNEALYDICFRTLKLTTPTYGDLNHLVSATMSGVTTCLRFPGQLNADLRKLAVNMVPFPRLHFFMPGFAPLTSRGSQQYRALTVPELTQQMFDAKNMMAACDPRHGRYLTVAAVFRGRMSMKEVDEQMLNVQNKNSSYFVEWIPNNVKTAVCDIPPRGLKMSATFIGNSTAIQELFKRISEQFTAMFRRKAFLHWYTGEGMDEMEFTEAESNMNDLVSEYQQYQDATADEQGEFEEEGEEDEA

B1: myosin-1D tail-TH1 construct (aa 721–913) (domain or fragment, Dictyostelium discoideum, UniProt P34109 721-913, looked up)
chain: MKSNKERRRLSIERPYQGDYINYRENFELKDIVKKNGNEKIMFTHAVNKYDRRSRCQRRVLLLSDTAIYFIATEKNKDKEDRKKRPWIYVQKRRLLLAGITSVELSKLSDGFVVLKTMNEHDQIFECRRKTEFLGTLIKAYKTGTLRINYNNSIGVAIKASKQGGKGKERIILFEKGIKPGESVFKGTKVSTP
notes: Dictyostelium discoideum myosin-1D, TH1 domain only, aa 721-913; The methods describe cloning into pGEX-6P2 (GST only); the results call the construct YFP-tagged and the co-sedimentation detects YFP; S3; also called Myosin-1D-TH1; isolated TH1 domain; source: E. coli Rosetta pLys-S, purified (glutathione-Sepharose, size exclusion chromatography)
As to B1, in assay [1], the Kd worked out at 3300 ± 200 nM.

B2: myosin-1B tail (amino acids 717–1111) (domain or fragment, Dictyostelium discoideum, UniProt P34092 717-1111, looked up)
chain: QRAQIAHMFKDKKERQRNSIDRKFTSDYIDFENQFGLQEAMQNAHKKERVVFADTVIKIDRRAKQKNYEMVLTDQALYFVEKSIKKKVLVHTLIRRVGLREIKGVSISTLSDNVIVFHLPEHDQVIENDKKTEIIIVLVEYFKAIGGGSLNVQFSDRINYTLKKGEQKEISFQKSEQCPTLVVKKGGKGLIGTIASGLPSSTDSTPKNYNPNSMSQASSRPAPQQSAGRGRGMPQGAGQPQPQQPQQQQRPMPQPQQGGGARPMPQPQQGGGARPMGAPQQGGAPQQGAGRQLPQPTQQGGAPGGRGAPMGRGAPGGGPAGAGGRPLPTVAKPAPQPSRPTAKALYDYDASSTDELSFKEGDIIFIVQKDNGGWTQGELKSGQKGWAPTNYLQYN
notes: Dictyostelium discoideum myosin-1B, tail, amino acids 717-1111 (NCBI XM_631290.1); Cloned both into pGEX-6P2 (GST only) and pGEX-6P2-eYFP-mcs (GST and YFP); the actin and microtubule assays detect YFP; S3; also called YFP-myosin-1 tail; source: E. coli Rosetta pLys-S, purified (glutathione-Sepharose, size exclusion chromatography); not shown: YFP, C-terminal, kept
Consider B2, for which the Kd in assay [2] amounted to 6800 ± 200 nM; in assay [1], 900 ± 100 nM.

B3: myosin-1C tail (domain or fragment)
chain: RYWHDMASRIKNAYRNYKAFQFECSNRIKNAFRNYKLYRQRCAQTIQGYFRAWKQASPFFDLRMQNEQLFQGRKERNRFSMISVRKYFGDYLDVRSQSYFLDAMAEGRNEDVIFSSKSQVMVHPILSANKLSPRFLIVTKQAIYLIKLKQKKNLATYLLDRRVPLAEVTSFSLSSLADNLLVIHTSTQFDVAVTTEFKTELVALINKQKGTTLAVNFGQSIQYFKKKGSNNTVTFLKDEMHKEIFLKKNQFHIASGLPASTTVAKVRKNPSQVSTPSKPIAKPVAKPMVAKPSGGSVIMKKPAPAAPPSGPPVMKKPAPTAPGGAPMMKKPAPAPGGAPMMKKPAPVPGGPAPGGSAIMKPAGGVSKPLPSPTGAPMMKKPAPTAPGGPAPAGAPTPMMKKPAGQPMMKPIAKPQPTPMKKPAAPPPQQYIALYEYDAMQPDELTFKENDVINLIKKVDADWWQGELVRTKQIGMLPSNYVQQI
notes: Dictyostelium discoideum myosin-1C, tail; S3; also called YFP-myosin-1 tail; source: E. coli Rosetta pLys-S, purified (glutathione-Sepharose, size exclusion chromatography)
Take B3: the equilibrium dissociation constant (Kd) in assay [2] worked out at 800 ± 80 nM; in assay [3] it was 900 ± 400 nM.

For the origin of these results see article PMC12676778, “Long-tailed class I myosins rely on tail-mediated phosphoinositide recognition for specific membrane recruitment” (Cell Communication and Signaling : CCS, 2025).
